According to US20140178332A1 (published 2014):

Target: T1, recombinant purified human IL-12 p70 (human, UniProt P29459 23-219)
T1 construct: Disulfide-linked heterodimer of p35 and p40; also called hIL-12; Hu IL-12
T1 sequence 1: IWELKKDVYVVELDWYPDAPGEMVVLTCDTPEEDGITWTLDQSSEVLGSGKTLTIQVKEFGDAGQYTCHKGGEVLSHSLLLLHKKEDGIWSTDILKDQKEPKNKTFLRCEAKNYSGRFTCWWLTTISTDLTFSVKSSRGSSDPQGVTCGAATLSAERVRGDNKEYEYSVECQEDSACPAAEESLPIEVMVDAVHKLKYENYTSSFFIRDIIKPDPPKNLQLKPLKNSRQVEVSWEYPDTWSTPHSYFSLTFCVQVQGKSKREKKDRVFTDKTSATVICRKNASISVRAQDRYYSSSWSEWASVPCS
T1 sequence 2: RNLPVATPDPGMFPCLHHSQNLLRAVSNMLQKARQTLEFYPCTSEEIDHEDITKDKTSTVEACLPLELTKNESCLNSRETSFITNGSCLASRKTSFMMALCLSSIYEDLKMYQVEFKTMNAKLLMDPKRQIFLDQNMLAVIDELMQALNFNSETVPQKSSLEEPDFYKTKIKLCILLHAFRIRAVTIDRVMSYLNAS
Assay: competition ELISA on coated human IL-12, competitor of 0.8 µg/ml biotinylated 8E1, Expt. 2
Description: MaxiSorp ELISA plates (Nalge Nunc International) were coated overnight at 4° C. with 100 μl/well of 1.0 μg/ml human IL-12 in 0.2 M sodium carbonate-bicarbonate buffer, pH 9.4, washed with Wash Buffer (PBS containing 0.1% Tween 20), and blocked for 1 hr at room temperature with 300 μl/well of SuperBlock Blocking Buffer in TBS (Pierce Chemical Company). After washing with Wash Buffer, a mixture of biotinylated 8E 1 ([…] final concentration) and competitor antibody (8E1 or 8E1.4 or 8E1.5 or 8E1.6) starting at 100 μg/ml final concentration and serially diluted 3-fold) in 100 μl/well of ELISA buffer was added in duplicate. As isotype controls, 100 μl/well of 100 μg/ml mouse IgG 1/κ (MuFd79) or humanized IgG1/κ (HuFd79) monoclonal antibodies in ELISA buffer was used. As a no-competitor control, 100 μl/well of ELISA Buffer was used. After incubating the plates for 1 hr at room temperature, and washing with Wash Buffer, bound antibodies were detected using 100 μl/well of 1 μg/ml HRP-conjugated streptavidin (Pierce Chemical Company) in ELISA buffer. After incubating for 1 hr at room temperature, and washing with Wash Buffer, color development was performed by adding 100 μl/well of ABTS Peroxidase Substrate/Peroxidase Solution B (KPL, Inc.). […] Absorbance was read at 415 nm.
The affinity of 8E1.4, 8E1.5 and 8E1.6 to human IL-12 was analyzed by competition ELISA as described above.

IC50: 2.78 µg/mL
B1: murine anti-human IL-12p40 monoclonal antibody 8E1 (antibody, V domains shown)
VH: EVKLVESGGGLVQPGGSRKLSCAASGFTFSDYGMVWVRQAPGKGLEWVASISSGSSNIYYADTVKGRFTISRDDPNNTLFLQMRSLRSEDTAMYYCARNPYWGQGTTLTVSS
VL: DIVMTQSQKFMSTSVGDRVSVTCKASQNVGTNVAWYQQKPGQSPKGLIYSASHRYSGVPDRFAGSGSGTDFTLTISNVQSEDLAEYFCQQYNSYPLTFGGGTKLELKR
notes: Murine mAb; also called biotinylated 8E1
